According to article PMC2756588:

T1: Bud14, P27637
T1 sequence (P27637 247-328, looked up): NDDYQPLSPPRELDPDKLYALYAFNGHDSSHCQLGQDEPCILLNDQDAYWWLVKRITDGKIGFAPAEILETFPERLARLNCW

T2: Hse1, P38753
T2 sequence (P38753 208-285, looked up): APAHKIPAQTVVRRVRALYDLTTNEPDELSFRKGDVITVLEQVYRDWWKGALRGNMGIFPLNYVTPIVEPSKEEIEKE

T3: Fus1, P11710
T3 sequence (P11710 432-512, looked up): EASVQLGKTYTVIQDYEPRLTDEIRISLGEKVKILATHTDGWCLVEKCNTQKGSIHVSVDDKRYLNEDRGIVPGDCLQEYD

T4: Hof1, Q05080
T4 sequence (Q05080 590-669, looked up): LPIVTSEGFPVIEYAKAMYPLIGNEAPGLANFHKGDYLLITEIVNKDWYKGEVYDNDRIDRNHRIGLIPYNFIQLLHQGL

T5: Lsb1, P53281
T5 sequence (P53281 45-122, looked up): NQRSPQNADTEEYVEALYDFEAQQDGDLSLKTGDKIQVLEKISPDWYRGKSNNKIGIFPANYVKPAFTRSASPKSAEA

T6: Nbp2, Q12163
T6 sequence (Q12163 103-180, looked up): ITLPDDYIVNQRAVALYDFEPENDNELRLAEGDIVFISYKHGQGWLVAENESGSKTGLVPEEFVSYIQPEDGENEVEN

T7: Pex13, P80667
T7 sequence (P80667 295-386, looked up): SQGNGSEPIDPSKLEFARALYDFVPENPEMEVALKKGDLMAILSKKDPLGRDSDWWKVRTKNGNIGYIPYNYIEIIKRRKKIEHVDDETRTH

T8: Cdc25, P04821
T8 sequence (P04821 50-136, looked up): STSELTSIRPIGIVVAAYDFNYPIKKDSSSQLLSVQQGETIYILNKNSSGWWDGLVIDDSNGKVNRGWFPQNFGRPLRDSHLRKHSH

T9: Bzz1-2, P38822
T9 sequence (P38822 568-633, looked up): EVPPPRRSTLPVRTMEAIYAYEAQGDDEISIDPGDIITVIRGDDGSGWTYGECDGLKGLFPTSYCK

T10: Sla1-2, P32790
T10 sequence (P32790 60-140, looked up): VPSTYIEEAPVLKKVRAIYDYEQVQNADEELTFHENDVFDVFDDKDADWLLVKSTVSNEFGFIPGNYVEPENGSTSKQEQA

T11: Lsb3, P43603
T11 sequence (P43603 385-451, looked up): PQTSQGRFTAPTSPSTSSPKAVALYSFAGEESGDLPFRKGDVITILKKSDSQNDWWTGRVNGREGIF

T12: Myo5, Q04439
T12 sequence (Q04439 1072-1160, looked up): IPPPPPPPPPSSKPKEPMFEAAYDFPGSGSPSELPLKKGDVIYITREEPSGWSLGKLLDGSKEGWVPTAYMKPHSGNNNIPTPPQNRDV

T13: Cyk3, Q07533
T13 sequence (Q07533 1-83, looked up): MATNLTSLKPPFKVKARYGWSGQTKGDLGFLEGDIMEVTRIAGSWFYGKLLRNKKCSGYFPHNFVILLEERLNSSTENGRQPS

T14: Bbc1, P47068
T14 sequence (P47068 1-78, looked up): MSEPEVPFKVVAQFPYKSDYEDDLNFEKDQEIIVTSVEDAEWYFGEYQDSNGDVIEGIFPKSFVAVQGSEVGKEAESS

T15: Sla1-3, P32790
T15 sequence (P32790 344-424, looked up): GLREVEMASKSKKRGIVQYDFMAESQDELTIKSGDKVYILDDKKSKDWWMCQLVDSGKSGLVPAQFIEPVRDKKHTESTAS

T16: Boi2, P39969
T16 sequence (P39969 32-116, looked up): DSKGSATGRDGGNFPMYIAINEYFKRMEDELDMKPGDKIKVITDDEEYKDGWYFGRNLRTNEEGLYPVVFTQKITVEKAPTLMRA

T17: Boi1, P38041
T17 sequence (P38041 1-86, looked up): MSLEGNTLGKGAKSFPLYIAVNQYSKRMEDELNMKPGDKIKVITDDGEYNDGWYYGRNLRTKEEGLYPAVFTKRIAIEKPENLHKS

T18: Abp1, P15891
T18 sequence (P15891 535-592, looked up): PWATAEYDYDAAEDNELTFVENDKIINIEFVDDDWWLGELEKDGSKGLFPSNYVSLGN

T19: Lsb4, P32793
T19 sequence (P32793 402-468, looked up): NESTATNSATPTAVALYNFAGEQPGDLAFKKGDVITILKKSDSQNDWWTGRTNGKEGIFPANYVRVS

T20: Pin3, Q06449
T20 sequence (Q06449 53-122, looked up): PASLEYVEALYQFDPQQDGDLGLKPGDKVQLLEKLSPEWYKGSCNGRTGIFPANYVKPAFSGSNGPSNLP

T21: Bzz1-1, P38822
T21 sequence (P38822 478-572, looked up): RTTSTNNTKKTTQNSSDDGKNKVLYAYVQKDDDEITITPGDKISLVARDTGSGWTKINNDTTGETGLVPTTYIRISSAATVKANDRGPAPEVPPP


These binders were tested against T1, Bud14, P27637 (assay: SPOT array). Conditions: median of control spots 956.

| SPOT intensity | Binder |
| --- | --- |
| 16 | VRVKKRPLIRPLNSS |
| 17 | LRIKRKPVQTFFEFI |
| 2 | ISRRRLPVIMHRLKM |

What follows are binders tested against Rvs167, P39743 (assay: SPOT array). Conditions: median of control spots 2707.
Sequence of Rvs167, P39743 (P39743 419-482): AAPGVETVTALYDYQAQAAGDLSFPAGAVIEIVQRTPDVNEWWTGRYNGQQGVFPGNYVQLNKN

| SPOT intensity | Binder |
| --- | --- |
| 7 | VRVKKRPLIRPLNSS |
| 2 | LRIKRKPVQTFFEFI |
| 21 | ISRRRLPVIMHRLKM |

These binders were tested against T2, Hse1, P38753 (assay: SPOT array). Conditions: median of control spots 1727.

| SPOT intensity | Binder |
| --- | --- |
| 14 | VRVKKRPLIRPLNSS |
| 25 | LRIKRKPVQTFFEFI |
| 17 | ISRRRLPVIMHRLKM |

These binders were tested against GST (assay: SPOT array). Conditions: median of control spots 978.

| SPOT intensity | Binder |
| --- | --- |
| 1 | VRVKKRPLIRPLNSS |
| 1 | LRIKRKPVQTFFEFI |
| 0 | ISRRRLPVIMHRLKM |

These binders were tested against T3, Fus1, P11710 (assay: SPOT array). Conditions: median of control spots 1200.

| SPOT intensity | Binder |
| --- | --- |
| 6 | VRVKKRPLIRPLNSS |
| 16 | LRIKRKPVQTFFEFI |
| 15 | ISRRRLPVIMHRLKM |

Each binder was assayed against T4, Hof1, Q05080 (assay: SPOT array). Conditions: median of control spots 4086.

| SPOT intensity | Binder |
| --- | --- |
| 0 | VRVKKRPLIRPLNSS |
| 7 | LRIKRKPVQTFFEFI |
| 9 | ISRRRLPVIMHRLKM |

Each binder was assayed against T5, Lsb1, P53281 (assay: SPOT array). Conditions: median of control spots 388.

| SPOT intensity | Binder |
| --- | --- |
| 9 | VRVKKRPLIRPLNSS |
| 4 | LRIKRKPVQTFFEFI |
| 137 | ISRRRLPVIMHRLKM |

These binders were tested against Myo3, P36006 (assay: SPOT array). Conditions: median of control spots 468.

| SPOT intensity | Binder |
| --- | --- |
| 8 | VRVKKRPLIRPLNSS |
| 8 | LRIKRKPVQTFFEFI |
| 7 | ISRRRLPVIMHRLKM |

These binders were tested against T6, Nbp2, Q12163 (assay: SPOT array). Conditions: median of control spots 357.

| SPOT intensity | Binder |
| --- | --- |
| 9 | VRVKKRPLIRPLNSS |
| 46 | LRIKRKPVQTFFEFI |
| 5 | ISRRRLPVIMHRLKM |

Each binder was assayed against T7, Pex13, P80667 (assay: SPOT array). Conditions: median of control spots 1341.

| SPOT intensity | Binder |
| --- | --- |
| 4 | VRVKKRPLIRPLNSS |
| 13 | LRIKRKPVQTFFEFI |
| 22 | ISRRRLPVIMHRLKM |

What follows are binders tested against Bem1-2, P29366 (assay: SPOT array). Conditions: median of control spots 4347.
Sequence of Bem1-2, P29366 (P29366 139-227): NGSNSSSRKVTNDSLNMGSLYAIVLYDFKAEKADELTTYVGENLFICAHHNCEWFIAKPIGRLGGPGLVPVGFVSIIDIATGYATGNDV

| SPOT intensity | Binder |
| --- | --- |
| 0 | VRVKKRPLIRPLNSS |
| 4 | LRIKRKPVQTFFEFI |
| 16 | ISRRRLPVIMHRLKM |

These binders were tested against T8, Cdc25, P04821 (assay: SPOT array). Conditions: median of control spots 969.

| SPOT intensity | Binder |
| --- | --- |
| 127 | VRVKKRPLIRPLNSS |
| 271 | LRIKRKPVQTFFEFI |
| 51 | ISRRRLPVIMHRLKM |

What follows are binders tested against T9, Bzz1-2, P38822 (assay: SPOT array). Conditions: median of control spots 4538.

| SPOT intensity | Binder |
| --- | --- |
| 11 | VRVKKRPLIRPLNSS |
| 0 | LRIKRKPVQTFFEFI |
| 5 | ISRRRLPVIMHRLKM |

The binders below were run against T10, Sla1-2, P32790 (assay: SPOT array). Conditions: median of control spots 712.

| SPOT intensity | Binder |
| --- | --- |
| 2 | VRVKKRPLIRPLNSS |
| 0 | LRIKRKPVQTFFEFI |
| 1 | ISRRRLPVIMHRLKM |

The binders below were run against T11, Lsb3, P43603 (assay: SPOT array). Conditions: median of control spots 406.

| SPOT intensity | Binder |
| --- | --- |
| 6 | VRVKKRPLIRPLNSS |
| 0 | LRIKRKPVQTFFEFI |
| 2 | ISRRRLPVIMHRLKM |

Each binder was assayed against T12, Myo5, Q04439 (assay: SPOT array). Conditions: median of control spots 471.

| SPOT intensity | Binder |
| --- | --- |
| 1 | VRVKKRPLIRPLNSS |
| 0 | LRIKRKPVQTFFEFI |
| 2 | ISRRRLPVIMHRLKM |

The binders below were run against Sho1, P40073 (assay: SPOT array). Conditions: median of control spots 1148.
Sequence of Sho1, P40073 (P40073 287-367): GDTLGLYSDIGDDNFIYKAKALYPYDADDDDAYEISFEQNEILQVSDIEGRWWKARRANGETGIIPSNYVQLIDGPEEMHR

| SPOT intensity | Binder |
| --- | --- |
| 188 | VRVKKRPLIRPLNSS |
| 173 | LRIKRKPVQTFFEFI |
| 112 | ISRRRLPVIMHRLKM |

What follows are binders tested against T13, Cyk3, Q07533 (assay: SPOT array). Conditions: median of control spots 1451.

| SPOT intensity | Binder |
| --- | --- |
| 2 | VRVKKRPLIRPLNSS |
| 1 | LRIKRKPVQTFFEFI |
| 0 | ISRRRLPVIMHRLKM |

The binders below were run against T14, Bbc1, P47068 (assay: SPOT array). Conditions: median of control spots 796.

| SPOT intensity | Binder |
| --- | --- |
| 201 | VRVKKRPLIRPLNSS |
| 54 | LRIKRKPVQTFFEFI |
| 26 | ISRRRLPVIMHRLKM |

What follows are binders tested against T15, Sla1-3, P32790 (assay: SPOT array). Conditions: median of control spots 5475.

| SPOT intensity | Binder |
| --- | --- |
| 22 | VRVKKRPLIRPLNSS |
| 9 | LRIKRKPVQTFFEFI |
| 20 | ISRRRLPVIMHRLKM |

These binders were tested against T16, Boi2, P39969 (assay: SPOT array). Conditions: median of control spots 1161.

| SPOT intensity | Binder |
| --- | --- |
| 3 | VRVKKRPLIRPLNSS |
| 1 | LRIKRKPVQTFFEFI |
| 1 | ISRRRLPVIMHRLKM |

The binders below were run against T17, Boi1, P38041 (assay: SPOT array). Conditions: median of control spots 1162.

| SPOT intensity | Binder |
| --- | --- |
| 2 | VRVKKRPLIRPLNSS |
| 11 | LRIKRKPVQTFFEFI |
| 1 | ISRRRLPVIMHRLKM |

The binders below were run against T18, Abp1, P15891 (assay: SPOT array). Conditions: median of control spots 935.

| SPOT intensity | Binder |
| --- | --- |
| 301 | VRVKKRPLIRPLNSS |
| 102 | LRIKRKPVQTFFEFI |
| 90 | ISRRRLPVIMHRLKM |

What follows are binders tested against T19, Lsb4, P32793 (assay: SPOT array). Conditions: median of control spots 397.

| SPOT intensity | Binder |
| --- | --- |
| 16 | VRVKKRPLIRPLNSS |
| 12 | LRIKRKPVQTFFEFI |
| 21 | ISRRRLPVIMHRLKM |

What follows are binders tested against Bem1-1, P29366 (assay: SPOT array). Conditions: median of control spots 4282.
Sequence of Bem1-1, P29366 (P29366 55-141): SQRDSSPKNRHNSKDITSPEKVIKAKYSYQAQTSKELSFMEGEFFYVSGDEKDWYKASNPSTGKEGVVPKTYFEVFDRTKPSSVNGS

| SPOT intensity | Binder |
| --- | --- |
| 0 | VRVKKRPLIRPLNSS |
| 1 | LRIKRKPVQTFFEFI |
| 0 | ISRRRLPVIMHRLKM |

The binders below were run against T20, Pin3, Q06449 (assay: SPOT array). Conditions: median of control spots 2171.

| SPOT intensity | Binder |
| --- | --- |
| 1 | VRVKKRPLIRPLNSS |
| 5 | LRIKRKPVQTFFEFI |
| 27 | ISRRRLPVIMHRLKM |

Each binder was assayed against T21, Bzz1-1, P38822 (assay: SPOT array). Conditions: median of control spots 4446.

| SPOT intensity | Binder |
| --- | --- |
| 1 | VRVKKRPLIRPLNSS |
| 0 | LRIKRKPVQTFFEFI |
| 0 | ISRRRLPVIMHRLKM |
